This passage reports expression_or_secretion results from article PMC5336313.

This series can be described thus: anti-Myc western blot of cell extracts and culture media. Conditions: glycan lost; control: wild-type C-terminally tagged full-length PEBP4. Background: A western blot detects proteins with antibodies after separation by electrophoresis.

B1: human PEBP4 (hPEBP4): T171A (protein)
parent chain: MGWTMRLVTAALLLGLMMVVTGDEDENSPCAHEALLDEDTLFCQGLEVFYPELGNIGCKVVPDCNNYRQKITSWMEPIVKFPGAVDGATYILVMVDPDAPSRAEPRQRFWRHWLVTDIKGADLKKGKIQGQELSAYQAPSPPAHSGFHRYQFFVYLQEGKVISLLPKENKTRGSWKMDRFLNRFHLGEPEASTQFMTQNYQDSPTLQAPRERASEPKHKNQAEIAAC
In the case of B1, the expression_or_secretion result is listed as “no change”.
